Where “and” joins values, the source holds several entries; their conditions need not be identical. Identical values can stand only once. Ends that are not written are not given here. * marks the point of attachment. C16 diacid = O=C(O)CCCCCCCCCCCCCCC(=O)*
T1: human GIP receptor (human, UniProt P48546 22-466)
T1 sequence (looked up): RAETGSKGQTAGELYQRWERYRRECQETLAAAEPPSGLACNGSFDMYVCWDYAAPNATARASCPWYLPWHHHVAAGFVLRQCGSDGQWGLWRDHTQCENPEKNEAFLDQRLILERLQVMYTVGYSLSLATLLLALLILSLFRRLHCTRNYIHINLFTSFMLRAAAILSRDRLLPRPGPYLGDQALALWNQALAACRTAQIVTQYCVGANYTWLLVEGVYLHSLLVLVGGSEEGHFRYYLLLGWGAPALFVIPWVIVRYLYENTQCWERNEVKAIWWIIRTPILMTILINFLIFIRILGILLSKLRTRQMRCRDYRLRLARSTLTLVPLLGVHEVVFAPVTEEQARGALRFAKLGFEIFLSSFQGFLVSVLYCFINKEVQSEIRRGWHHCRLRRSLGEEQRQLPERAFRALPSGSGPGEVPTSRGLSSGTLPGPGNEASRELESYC

T2: human GIP receptor (human, UniProt P48546 22-466)
T2 sequence (looked up): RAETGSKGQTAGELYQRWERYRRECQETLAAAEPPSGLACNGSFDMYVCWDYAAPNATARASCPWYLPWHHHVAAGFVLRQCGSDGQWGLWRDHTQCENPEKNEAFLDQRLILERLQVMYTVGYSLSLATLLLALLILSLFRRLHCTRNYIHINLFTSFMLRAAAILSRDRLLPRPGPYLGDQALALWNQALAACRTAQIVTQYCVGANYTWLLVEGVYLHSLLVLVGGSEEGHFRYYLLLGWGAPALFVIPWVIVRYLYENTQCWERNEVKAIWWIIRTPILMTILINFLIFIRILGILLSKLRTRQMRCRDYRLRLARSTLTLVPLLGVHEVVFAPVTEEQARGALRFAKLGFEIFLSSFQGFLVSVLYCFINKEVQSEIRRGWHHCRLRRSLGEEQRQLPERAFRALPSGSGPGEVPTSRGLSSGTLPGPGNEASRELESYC


Experiments:
human GIP receptor [1] = biological target: T1, human GIP receptor; assay: cell-based or functional assay
human GIP receptor [2] = biological target: T1, human GIP receptor; assay: 125I-hGIP competition binding, COS-7/hGIPR, 2% HSA;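 also: nonspecific binding defined as radioligand binding to untransfected cells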
Experimental: (§1) After incubation, the cells were washed twice in ice-cold binding buffer (+/−2% HSA) and lysed using 200 mM NaOH with 1% SDS for 30 min. Nonspecific binding was determined as the binding of radioactive ligand to untransfected cells.

human GIP receptor [3] = biological target: T1, human GIP receptor; assay: 125I-hGIP competition binding, COS-7/hGIPR, 0.1% casein;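 also: nonspecific binding defined as radioligand binding measured on untransfected cells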
Experimental: as §1

human GIP receptor [4] = biological target: T1, human GIP receptor; assay: 125I-hGIP competition binding, COS-7 cells expressing hGIPR;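 also: nonspecific binding taken as radioligand bound by untransfected cells, binding buffer with or without 2% HSA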
Experimental: as §1

human GIP receptor [5] = biological target: T1, human GIP receptor; assay: IC50 with 2% HSA over IC50 with 0.1% casein, 125I-hGIP competition, COS-7/hGIPR
Experimental: as §1

human GIP receptor [6] = biological target: T2, human GIP receptor; assay: cell-based or functional assay; remark: listed apart in the source
human GIP receptor [7] = biological target: T2, human GIP receptor; assay: 125I-hGIP(1-42) competition binding, COS-7 cells expressing human GIPR, with 2% HSA;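 also: nonspecific signal taken as radioligand bound to untransfected cells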
Experimental: as §1

human GIP receptor [8] = biological target: T2, human GIP receptor; assay: 125I-hGIP(1-42) competition binding, COS-7 cells expressing human GIPR, without HSA;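 also: nonspecific binding defined as radioligand bound to cells lacking the transfected receptor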
Experimental: as §1

human GIP receptor [9] = biological target: T2, human GIP receptor; assay: ratio of Ki with 2% HSA to Ki without HSA, 125I-hGIP competition binding on hGIPR COS-7 cells;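 also: nonspecific binding was defined as radioligand signal on cells lacking the receptor transfection, with cell lysates measured after washes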
Experimental: as §1

| Binder | cAMP agonism (human GIP receptor [1]) [nM] | cAMP agonism, EC50 (log) (human GIP receptor [1]) | cAMP agonism, Emax (human GIP receptor [1]) | cAMP antagonism (human GIP receptor [1]) [nM] | cAMP antagonism, log (human GIP receptor [1]) [log M] | IC50 (human GIP receptor [2]) [nM] | logIC50 (human GIP receptor [2]) [log M] | IC50 (human GIP receptor [3]) [nM] | logIC50 (human GIP receptor [3]) [log M] | IC50 (human GIP receptor [4]) [nM] | log IC50 (human GIP receptor [4]) | Fold change HSA (2%)/Casein (0.1%) (human GIP receptor [5]) [fold] | cAMP accumulation IC50 (human GIP receptor [6]) [nM] | cAMP accumulation logIC50 (human GIP receptor [6]) | Ki (human GIP receptor [7]) [nM] | Ki (human GIP receptor [8]) [nM] | Fold (Ki + HSA / Ki - HSA) (human GIP receptor [9]) [fold] |
| --- | --- | --- | --- | --- | --- | --- | --- | --- | --- | --- | --- | --- | --- | --- | --- | --- | --- |
| TFISDYSIAMDKIHQQDFVNWLK(C16 diacid)AQK-NH2 (N-terminus assumed; SMILES CC[C@H](C)[C@H](NC(=O)[C@H](CO)NC(=O)[C@H](Cc1ccc(O)cc1)NC(=O)[C@H](CC(=O)O)NC(=O)[C@H](CO)NC(=O)[C@@H](NC(=O)[C@H](Cc1ccccc1)NC(=O)[C@@H](N)[C@@H](C)O)[C@@H](C)CC)C(=O)N[C@@H](C)C(=O)N[C@@H](CCSC)C(=O)N[C@@H](CC(=O)O)C(=O)N[C@@H](CCCCN)C(=O)N[C@H](C(=O)N[C@@H](Cc1c[nH]cn1)C(=O)N[C@@H](CCC(N)=O)C(=O)N[C@@H](CCC(N)=O)C(=O)N[C@@H](CC(=O)O)C(=O)N[C@@H](Cc1ccccc1)C(=O)N[C@H](C(=O)N[C@@H](CC(N)=O)C(=O)N[C@@H](Cc1c[nH]c2ccccc12)C(=O)N[C@@H](CC(C)C)C(=O)N[C@@H](CCCCNC(=O)CCCCCCCCCCCCCCC(=O)O)C(=O)N[C@@H](C)C(=O)N[C@@H](CCC(N)=O)C(=O)N[C@@H](CCCCN)C(N)=O)C(C)C)[C@@H](C)CC) [AT187 [hGIP(5-30)NH2[L27K]-C16diacid/27]] | 2380 | -6 log M and -5.6 log M | 25 | 2380 | -5.6 | 676 | -6.2 | 144 | -6.8 | 26500 | -4.6 log M and -4.58 log M | 4.7 |  |  |  |  |  |
| TFISDYSIAMDKIHQQDFVNWLLAK(C16 diacid)K-NH2 (N-terminus assumed; SMILES CC[C@H](C)[C@H](NC(=O)[C@H](CO)NC(=O)[C@H](Cc1ccc(O)cc1)NC(=O)[C@H](CC(=O)O)NC(=O)[C@H](CO)NC(=O)[C@@H](NC(=O)[C@H](Cc1ccccc1)NC(=O)[C@@H](N)[C@@H](C)O)[C@@H](C)CC)C(=O)N[C@@H](C)C(=O)N[C@@H](CCSC)C(=O)N[C@@H](CC(=O)O)C(=O)N[C@@H](CCCCN)C(=O)N[C@H](C(=O)N[C@@H](Cc1c[nH]cn1)C(=O)N[C@@H](CCC(N)=O)C(=O)N[C@@H](CCC(N)=O)C(=O)N[C@@H](CC(=O)O)C(=O)N[C@@H](Cc1ccccc1)C(=O)N[C@H](C(=O)N[C@@H](CC(N)=O)C(=O)N[C@@H](Cc1c[nH]c2ccccc12)C(=O)N[C@@H](CC(C)C)C(=O)N[C@@H](CC(C)C)C(=O)N[C@@H](C)C(=O)N[C@@H](CCCCNC(=O)CCCCCCCCCCCCCCC(=O)O)C(=O)N[C@@H](CCCCN)C(N)=O)C(C)C)[C@@H](C)CC) [AT189 [hGIP(5-30)NH2[Q29K]-C16diacid/29]] | 79 | -7 log M and -7.1 log M | 12 | 79 | -7.1 | 575 | -6.2 | 182 | -6.7 | 118 | -6.9 log M and -6.93 log M | 3.2 |  |  |  |  |  |
| TFISDYSIAMDKIHQQDFVNWK(C16 diacid)LAQK-NH2 (N-terminus assumed; SMILES CC[C@H](C)[C@H](NC(=O)[C@H](CO)NC(=O)[C@H](Cc1ccc(O)cc1)NC(=O)[C@H](CC(=O)O)NC(=O)[C@H](CO)NC(=O)[C@@H](NC(=O)[C@H](Cc1ccccc1)NC(=O)[C@@H](N)[C@@H](C)O)[C@@H](C)CC)C(=O)N[C@@H](C)C(=O)N[C@@H](CCSC)C(=O)N[C@@H](CC(=O)O)C(=O)N[C@@H](CCCCN)C(=O)N[C@H](C(=O)N[C@@H](Cc1c[nH]cn1)C(=O)N[C@@H](CCC(N)=O)C(=O)N[C@@H](CCC(N)=O)C(=O)N[C@@H](CC(=O)O)C(=O)N[C@@H](Cc1ccccc1)C(=O)N[C@H](C(=O)N[C@@H](CC(N)=O)C(=O)N[C@@H](Cc1c[nH]c2ccccc12)C(=O)N[C@@H](CCCCNC(=O)CCCCCCCCCCCCCCC(=O)O)C(=O)N[C@@H](CC(C)C)C(=O)N[C@@H](C)C(=O)N[C@@H](CCC(N)=O)C(=O)N[C@@H](CCCCN)C(N)=O)C(C)C)[C@@H](C)CC) [AT186 [hGIP(5-30)NH2[L26K]-C16diacid/26]] |  |  | 0 | 79 | -7.1 | 331 | -6.5 | 87.1 | -7.1 | 144 | -6.8 log M and -6.84 log M | 3.8 |  |  |  |  |  |
| TFISDYSIAMDKIHQQDFVNWLLAQK-NH2 (Not lipidated) [hGIP(5-30)NH2] |  |  |  |  |  |  |  |  |  |  |  |  | 27.5 | -7.56 log(M) | 6.7 | 6.3 | 1 |

From patent US20200087373A1 (UNIVERSITY OF COPENHAGEN, published 2020)
